Results from patent publication US20260022169A1 (published 2026).

Target: T1, CLDN18.2 (UniProt P56856 1-261)
T1 chain: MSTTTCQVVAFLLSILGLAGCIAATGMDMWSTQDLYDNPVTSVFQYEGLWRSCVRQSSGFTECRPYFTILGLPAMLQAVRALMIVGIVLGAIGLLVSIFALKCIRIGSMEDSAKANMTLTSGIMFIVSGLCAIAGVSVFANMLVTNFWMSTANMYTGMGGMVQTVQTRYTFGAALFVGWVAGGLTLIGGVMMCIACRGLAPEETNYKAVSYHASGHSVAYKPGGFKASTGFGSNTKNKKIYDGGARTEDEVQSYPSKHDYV
Test: FACS binding, MC38/CD47/CLDN18.2 cells

- EC50: 3.24 nM
B1: hu28 (antibody, V domains shown)
VH: QVQLVQSGAEVKKPGASVKVSCKASGYTFTNWVHWVRQAPGQGLEWMGEINPTNARSNYNEKFKKRVTMTRDTSTSTVYMELSSLRSEDTAVYYCARIYYGNSFAHWGQGTLVTVSS
VL: DIVMTQSPDSLAVSLGERATINCKSSQSLLNAGNQKNYLTWYQQKPGQPPKLLIYWSSTRESGVPDRFSGSGSGTDFTLTISSLQAEDVAVYHCQNNYYYPLTFGGGTKLEIKR
